The values that follow are results of earlier work, collected in publication PMC3901153.

By Kd is commonly meant the equilibrium constant for the complex coming apart.

The target in data set [1] is TLR4 (Homo sapiens) (UniProt O00206).
For data set [2], the target named is RAGE (Homo sapiens) (UniProt Q15109).
Chain of UniProt Q15109 (Q15109 23-404): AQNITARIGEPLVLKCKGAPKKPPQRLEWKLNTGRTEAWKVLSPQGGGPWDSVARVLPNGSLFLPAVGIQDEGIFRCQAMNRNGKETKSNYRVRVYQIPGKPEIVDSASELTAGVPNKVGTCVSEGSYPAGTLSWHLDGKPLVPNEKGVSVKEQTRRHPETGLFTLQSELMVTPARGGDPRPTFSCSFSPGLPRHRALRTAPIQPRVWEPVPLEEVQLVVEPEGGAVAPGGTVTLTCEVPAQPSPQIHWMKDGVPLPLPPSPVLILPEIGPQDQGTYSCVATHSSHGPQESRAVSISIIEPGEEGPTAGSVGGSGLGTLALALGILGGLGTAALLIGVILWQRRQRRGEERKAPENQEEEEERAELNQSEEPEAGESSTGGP

Chain of UniProt O00206 (O00206 24-839): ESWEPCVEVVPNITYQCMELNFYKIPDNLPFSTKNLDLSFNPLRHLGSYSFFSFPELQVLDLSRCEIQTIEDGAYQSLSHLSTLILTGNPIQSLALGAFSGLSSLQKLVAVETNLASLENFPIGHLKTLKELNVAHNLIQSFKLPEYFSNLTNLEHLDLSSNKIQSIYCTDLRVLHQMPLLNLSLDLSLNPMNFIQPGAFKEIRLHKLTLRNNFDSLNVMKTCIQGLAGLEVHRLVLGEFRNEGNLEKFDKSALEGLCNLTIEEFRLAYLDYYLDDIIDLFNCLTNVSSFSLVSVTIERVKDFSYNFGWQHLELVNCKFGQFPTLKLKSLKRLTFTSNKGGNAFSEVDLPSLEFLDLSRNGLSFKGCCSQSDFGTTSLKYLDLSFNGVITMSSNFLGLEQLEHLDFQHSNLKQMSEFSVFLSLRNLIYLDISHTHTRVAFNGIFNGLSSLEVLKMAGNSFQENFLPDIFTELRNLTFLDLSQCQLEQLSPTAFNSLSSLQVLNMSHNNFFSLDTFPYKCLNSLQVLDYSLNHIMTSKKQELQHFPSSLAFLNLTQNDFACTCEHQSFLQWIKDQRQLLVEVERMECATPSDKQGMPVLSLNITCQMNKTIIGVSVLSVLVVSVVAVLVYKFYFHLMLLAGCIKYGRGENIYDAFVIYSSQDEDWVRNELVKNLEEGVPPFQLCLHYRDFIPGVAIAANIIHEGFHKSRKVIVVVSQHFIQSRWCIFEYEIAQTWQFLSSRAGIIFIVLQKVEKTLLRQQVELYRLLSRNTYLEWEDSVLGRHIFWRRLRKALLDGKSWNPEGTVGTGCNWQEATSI

For HMGB1 (from UniProt P09429), the Kd was 1.5 µM in data set [1] and 0.01 µM in data set [2].
